Experimental data from patent US20230382970A1 (HANMI PHARM, published 2023).
Numbered stars: 1 amine (or outer) side, 2 acyl side, 3 side chain; on linkers, the order of the positions; unused ones are H or OH. Bridge positions count the residues as written; N and C are the ends. Square brackets hold non-standard residues; d marks the D form. Ends that are not written are not given here. * marks the point of attachment. HAY = 2-(4-hydroxyphenyl)acetic acid replacing N-terminal Tyr, O=C(Cc1ccc(O[*:3])cc1)[*:2]; Desaminotyrosyl = O=C(CCc1ccc(O)cc1)*; Nle = CCCC[C@H](N)C(=O)O; Aib = CC(C)(N)C(=O)O

T1: human GIP receptor (human, UniProt P48546 22-466)
T1 sequence (looked up): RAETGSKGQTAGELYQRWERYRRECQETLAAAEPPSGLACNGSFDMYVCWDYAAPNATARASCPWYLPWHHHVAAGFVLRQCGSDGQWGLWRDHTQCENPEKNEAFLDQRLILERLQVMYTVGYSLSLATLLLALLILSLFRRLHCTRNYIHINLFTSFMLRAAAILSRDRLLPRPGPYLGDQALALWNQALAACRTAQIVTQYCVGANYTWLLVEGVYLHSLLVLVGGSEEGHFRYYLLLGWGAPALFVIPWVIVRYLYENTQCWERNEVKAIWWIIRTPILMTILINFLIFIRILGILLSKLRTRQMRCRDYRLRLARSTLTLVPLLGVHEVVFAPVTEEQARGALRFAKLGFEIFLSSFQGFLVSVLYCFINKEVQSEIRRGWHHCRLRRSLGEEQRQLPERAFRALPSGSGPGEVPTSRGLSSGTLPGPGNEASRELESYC


Assays:
[1] = target: human GLP-1 receptor (human, UniProt P43220 24-463); assay: cell-based or functional assay
[2] = target: T1, human GIP receptor; assay: cell-based or functional assay

Binder | In vitro activity (%) compared to native-type peptide, vs human GLP-1 (cAMP EC50, human GLP-1 receptor-expressing CHO cells) [1] | In vitro activity (%) compared to native-type peptide, vs human GIP (cAMP EC50, human GIP receptor-expressing CHO cells) [2]
Y[Aib]EGTFTSDYSI[Aib]LDKQHA[Aib]AFVQWLIAGGPSSGAPPPSC [GLP-1/GIP dual agonist of SEQ ID NO: 35] | 9.6% | 64.2%
Y[Aib]EGTFTSDYSI[Aib]LDKQAQQ[Aib]FVQWLIAGGPSSGAPPPSC [GLP-1/GIP dual agonist of SEQ ID NO: 37] | 45.2% | 174%
Y[Aib]EGTFTSDYSIALEKQAQQDFVNWLLAGGPSSGAPPPSC [GLP-1/GIP dual agonist of SEQ ID NO: 28] | 6.7% | 146%
[Desaminotyrosyl][Aib]EGTFISDYSIALE[Nle]QAQQDFVNWLLAGGPSSGAPPPSK [GLP-1/GIP dual agonist of SEQ ID NO: 44] | 1.4% | 74.2%
Y[Aib]EGTFTSDYSI[Aib]LDKQAARAFVQWLIAGGPSSGAPPPSC [GLP-1/GIP dual agonist of SEQ ID NO: 34] | 34.2% | 63.4%
Y[Aib]EGTFTSDYSIAMDAIAQQDFVNWLLAQKGKKNDWKHNITQC [GLP-1/GIP dual agonist of SEQ ID NO: 26] | 0.3% | 57.9%
Y[Aib]EGTFTSDYSKYLDEIRAKDFVQWLLDHHPSSGQPPPC (bridge 16-20) [GLP-1/GIP dual agonist of SEQ ID NO: 4] | 1.9% | 18.5%
Y[Aib]EGTFTSDYSI[Aib]LDKQAA[Aib]EFVNWLL[Aib]GHPSSGAPPPSC [GLP-1/GIP dual agonist of SEQ ID NO: 30] | 1% | 63.4%
[Desaminotyrosyl][Aib]EGTFTSDYSI[Aib]LDKIAQRAFVQWLIAGGPSSGAPPPSK [GLP-1/GIP dual agonist of SEQ ID NO: 31] | 93.3% | 38.3%
[Desaminotyrosyl][Aib]EGTFTSDYSI[Aib]LDAQAA[Aib]AFVQWLIAGGPSSGAPPPSK [GLP-1/GIP dual agonist of SEQ ID NO: 41] | 117% | 58.7%
[Desaminotyrosyl][Aib]EGTFISDYSIALEAQAQQDFVNWLLAGGPSSGAPPPSK [GLP-1/GIP dual agonist of SEQ ID NO: 43] | 1.2% | 109%
Y[Aib]EGTFTSDYSIALEKQAQRDFVNWLLAGGPSSGAPPPSC [GLP-1/GIP dual agonist of SEQ ID NO: 40] | 97.7% | 181%
Y[Aib]EGTFTSDYSI[Aib]LDKQAQQAFVQWLIAGGPSSGAPPPSC [GLP-1/GIP dual agonist of SEQ ID NO: 36] | 79.9% | 217%
Y[Aib]EGTFTSDYSIALEKQAA[Aib]DFVNWLLAGGPSSGAPPPSC [GLP-1/GIP dual agonist of SEQ ID NO: 39] | 15.9% | 144%
Y[Aib]EGTFTSDYSI[Aib]LEKQAQQDFVNWLLAGGPSSGAPPPSC [GLP-1/GIP dual agonist of SEQ ID NO: 38] | 14.3% | 216%
[HAY][Aib]EGTFTSDYSI[Aib]LDKIAQRAFVQWLIAGGPSSGAPPPSK [GLP-1/GIP dual agonist of SEQ ID NO: 32] | 88.3% | 20.1%
Y[Aib]EGTFTSDYSKYLDEIAAKDFVQWLLDHHPSSGQPPPSC (bridge 16-20) [GLP-1/GIP dual agonist of SEQ ID NO: 3] | 6.8% | 28.7%
Y[Aib]EGTFTSDYSIAMDAIAQQDFVNWLLAQRGKKSDWKHNITQC [GLP-1/GIP dual agonist of SEQ ID NO: 27] | 0.2% | 55.5%
[Desaminotyrosyl][Aib]EGTFTSDYSI[Aib]LD[Nle]QAA[Aib]AFVQWLIAGGPSSGAPPPSK [GLP-1/GIP dual agonist of SEQ ID NO: 42] | 69.5% | 35.9%
Y[Aib]EGTFTSDYSI[Aib]LDKQAA[Aib]EFVNWLL[Aib]GGPSSGAPPPSC [GLP-1/GIP dual agonist of SEQ ID NO: 29] | 0.5% | 96%
